According to the supplement of paper PMC10567573:

B1: KRT33B (parent)
chain: YQSYFKTIEELQQKILCSKSENAR
B2: TRAF3IP2 (parent)
chain: YGHDYPRAAYQQVIQPALPGQPLP

Variants of: B1
Assay: protein stability index of a GFP-peptide fusion (GPS, HEK-293T) (PSI 1-6); higher = more stable
Conditions: c terminus: a fixed tail appended
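Note: lentivirally expressed fusions sorted by FACS into six bins by GFP to DsRed ratio, PSI derived from sequencing read proportions per bin multiplied by bin number.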

Protein stability index: each site, then its substitutions
L11: A 2.41; T 1.85; Y 1.8
N22: Y 1.86
F5: M 3.48; A 2.37; C 2.16
Q12: E 2.6
E9: G 1.86
S3: P 2.41; Y 2.54; G 1.33
K6: N 1.88; H 1.62
S18: L 1.79; T 2; I 2.42
E10: W 1.71; M 1.67; L 1.63; H 1.65
A23: L 1.73; S 2.21; V 2.35; Y 1.64; T 2.27
T7: L 2; S 1.73
E21: T 1.77; K 1.79; G 1.72
Q2: W 2.15; D 2.98; F 2.5; P 2.77; C 1.52; Y 2.16
R24: H 1.71; C 2.4; P 2.13
Y4: N 1.85
I15: Y 1.73; R 1.93; E 1.81; C 3.74
C17: F 1.39; Y 1.61; A 2.16; S 1.7; G 1.87; W 1.53
K14: N 1.7; D 1.68; R 2.57
I8: H 2.42; Y 1.93
Y1: F 1.93; M 3.08
L16: I 2.14

Variants of: B2
Assay: as above
Conditions: c terminus: a fixed tail appended

Protein stability index of substitutions, site by site:
Q11: L 3.77; F 3.98; H 2.48; N 1.96; V 2.31; I 2.94; A 2.75; D 2.05; T 3.14; E 2.09; Y 2.52; K 2.24; G 1.79; M 1.65; R 1.59; P 1.69; C 3.05; W 1.94; S 2.15
L18: I 2.16; Y 2.26; F 2.59; R 2.12; M 1.9; N 2.25; H 1.9; S 1.6; P 1.82; C 1.86; D 2.17; Q 2.24; T 1.76; W 2.01; K 2.15; G 2.01; V 1.65; A 1.75; E 2.06
P24: W 2.3; D 2.45; Q 1.76; N 2.14; M 2.07; R 1.89; G 2.12; T 2.59; H 1.83; A 2.67; F 1.9; V 2.09; I 1.78; L 2.84; S 1.43; K 2.47; E 1.42; Y 1.6; C 2
L23: C 2.21; V 2.5; Q 2.24; T 1.99; K 2.2; W 1.72; R 2.28; N 2.09; S 2.02; I 2.24; G 1.77; F 2.15; P 1.54; Y 1.7; D 2.18; M 2.59; H 1.59; E 1.8; A 2.62
P22: I 1.82; Q 2.24; Y 1.75; G 3.86; D 1.34; K 2.17; F 2.56; M 1.82; S 1.8; L 1.39; R 1.79; N 2.11; E 1.71; V 1.8; T 2.33; C 1.62; W 1.26; A 1.93; H 1.71
G20: E 2.52; K 2.23; R 1.52; H 2.33; D 2.78; M 2.27; C 2.04; S 1.6; Y 2.66; V 1.69; N 2.68; L 1.38; I 1.58; F 1.8; Q 2.04; W 1.49
P16: K 2.48; H 1.57; D 2.22; N 1.95; M 1.89; Y 2.81; I 2.79; V 3.03; F 2.74; R 1.71; S 1.39; E 2.25; L 1.39; A 1.94; W 3.06; C 2.35; T 2.27; G 1.54; Q 2.03
Y10: P 2.28; I 2.02; K 2.36; Q 2.07; M 1.65; L 2; W 1.75; T 1.97; S 1.75; N 1.85; V 2.13; R 1.7
A17: G 1.46; H 2.08; C 2.32; F 2.48; R 1.74; P 2.2; Q 1.72; M 1.95; Y 1.83; I 2.37; D 2.36; T 2.62; S 2.43; L 3.12; V 2.41; N 1.29; E 2; W 1.92; K 1.98
Q15: C 2.22; N 1.63; S 2.01; V 1.68; P 2.45; E 2.1; L 2.23; T 1.62; A 1.74; G 2.42; R 2.24; K 1.82; W 3.01; F 2.68; D 2.6; I 2.14; M 1.59; Y 2.53; H 2.46
Q21: H 1.37; F 1.65; S 1.99; N 2.08; R 2.24; I 2.79; A 2.12; G 1.58; E 2.2; W 1.84; D 2.58; P 2.95; V 2.44; T 2.1; K 2.21; L 2.02; Y 1.88; C 2.74; M 2.67
I14: Y 2.52; E 2; T 1.86; C 2.49; H 1.88; P 2.14; N 1.92; D 1.22; R 1.74; S 2.09; M 1.49; W 2.33; K 2.31; Q 1.75; L 1.77; F 2.01; V 1.67; A 1.5; G 1.92
Q12: C 3.07; N 1.65; L 1.98; R 2.17; I 2.59; F 2.56; S 2.13; G 2.79; K 2.37; H 2.01; Y 2.61; T 1.7; D 1.58; V 3.04; P 3.46; W 2.41; E 1.48; A 1.96; M 3.06
V13: L 2.26; W 2.4; N 2.09; F 2.38; K 1.75; I 1.98; S 2.6; A 2.17; R 1.93; G 2.45; M 1.95; H 2.02; D 2.64; C 2.04; Y 2.03; E 1.74; T 1.83; Q 2.25; P 2.52
P19: V 2.35; E 2.42; M 2.34; L 2.5; C 2.24; F 2.44; K 2.14; T 2.65; H 1.65; D 1.98; N 2.07; G 1.9; Y 1.87; A 1.99; I 2.54; Q 1.54; S 2.45; W 1.73; R 1.76
